Assays:
[1] = biological target: purified human properdin (human) (UniProt P27918); assay: cell-based or functional assay
[2] = biological target: purified human properdin (human) (UniProt P27918); assay: ELISA, preformed C3bBbP on C3b-coated plates incubated with increasing IxAC-B1; bound properdin detected with anti-properdin antibody
[3] = biological target: purified human properdin (human) (UniProt P27918); assay: ELISA, preformed C3bBbP on C3b-coated plates incubated with increasing IRAC II; bound properdin detected with anti-properdin antibody

purified human properdin (human), sequence (P27918 28-469 limits assumed): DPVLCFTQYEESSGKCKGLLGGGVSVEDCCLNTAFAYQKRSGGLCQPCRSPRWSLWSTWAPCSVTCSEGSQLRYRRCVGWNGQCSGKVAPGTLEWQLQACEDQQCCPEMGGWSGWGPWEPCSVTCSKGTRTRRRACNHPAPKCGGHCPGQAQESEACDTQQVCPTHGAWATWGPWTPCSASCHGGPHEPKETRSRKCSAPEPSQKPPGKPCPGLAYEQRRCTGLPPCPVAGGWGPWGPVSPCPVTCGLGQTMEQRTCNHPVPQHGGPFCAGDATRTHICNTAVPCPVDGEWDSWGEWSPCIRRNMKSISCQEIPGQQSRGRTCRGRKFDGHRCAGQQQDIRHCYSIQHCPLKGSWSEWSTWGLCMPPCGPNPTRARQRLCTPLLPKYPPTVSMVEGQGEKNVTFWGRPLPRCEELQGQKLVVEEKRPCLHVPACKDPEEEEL

recombinant IxAC-B4-V5His
inhibition of alternative pathway haemolysis of rabbit red blood cells by human serum [1]: 85%

recombinant IxAC-B2-V5His
inhibition of alternative pathway haemolysis of rabbit red blood cells by human serum [1]: 85%

recombinant IxAC-B3-V5His
inhibition of alternative pathway haemolysis of rabbit red blood cells by human serum [1]: 85%

recombinant IxAC-B1-V5His
inhibition of alternative pathway haemolysis of rabbit red blood cells by human serum [1]: 85%
percent of pre-bound properdin displaced [2]: 50%

recombinant IRAC II-V5His (Ixodes ricinus anticomplement protein II)
inhibition of alternative pathway haemolysis of rabbit red blood cells by human serum [1]: 85%
percent of pre-bound properdin displaced [3]: 50%

recombinant IRAC I-V5His (Ixodes ricinus anticomplement protein I)
inhibition of alternative pathway haemolysis of rabbit red blood cells by human serum [1]: 85%

recombinant IxAC-B5-V5His
inhibition of alternative pathway haemolysis of rabbit red blood cells by human serum [1]: 85%

From patent US20110008351A1
